# Biological target: Oct4 C48S (purified) (Mus musculus, UniProt P20263 1-352, C178S)
# Test: EMSA
# Sequence of Oct4 C48S (purified) (P20263 whole entry C178S): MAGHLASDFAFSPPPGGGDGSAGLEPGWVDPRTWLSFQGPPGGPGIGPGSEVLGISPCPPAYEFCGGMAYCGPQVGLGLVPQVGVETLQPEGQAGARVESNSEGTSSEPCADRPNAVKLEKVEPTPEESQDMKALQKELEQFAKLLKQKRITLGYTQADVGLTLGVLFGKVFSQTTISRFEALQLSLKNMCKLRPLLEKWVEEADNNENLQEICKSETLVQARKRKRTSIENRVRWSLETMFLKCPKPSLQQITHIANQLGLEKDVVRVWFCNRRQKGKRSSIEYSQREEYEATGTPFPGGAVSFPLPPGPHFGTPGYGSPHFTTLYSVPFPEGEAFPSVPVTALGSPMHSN
binder,measurement,value
wild-type octamer probe (dsDNA) DNA 1: TGTCGAATGCAAATCACT DNA 2: AGTGATTTGCATTCGACA,binding result,binds

# Reference: article PMC11146590
